Laboratory results: paper PMC3531251, “Yeast importin-β is required for nuclear import of the Mig2 repressor” (BMC Cell Biology, 2012)

Target: T1, Kap60 (importin-α), purified from E. coli (S. cerevisiae, UniProt Q02821 1-542)
T1 construct: also called purified Kap60; GST-Kap60 (before thrombin); source: E. coli BL21(DE3) pLysS, purified on glutathione-Sepharose, released with thrombin
T1 sequence (looked up): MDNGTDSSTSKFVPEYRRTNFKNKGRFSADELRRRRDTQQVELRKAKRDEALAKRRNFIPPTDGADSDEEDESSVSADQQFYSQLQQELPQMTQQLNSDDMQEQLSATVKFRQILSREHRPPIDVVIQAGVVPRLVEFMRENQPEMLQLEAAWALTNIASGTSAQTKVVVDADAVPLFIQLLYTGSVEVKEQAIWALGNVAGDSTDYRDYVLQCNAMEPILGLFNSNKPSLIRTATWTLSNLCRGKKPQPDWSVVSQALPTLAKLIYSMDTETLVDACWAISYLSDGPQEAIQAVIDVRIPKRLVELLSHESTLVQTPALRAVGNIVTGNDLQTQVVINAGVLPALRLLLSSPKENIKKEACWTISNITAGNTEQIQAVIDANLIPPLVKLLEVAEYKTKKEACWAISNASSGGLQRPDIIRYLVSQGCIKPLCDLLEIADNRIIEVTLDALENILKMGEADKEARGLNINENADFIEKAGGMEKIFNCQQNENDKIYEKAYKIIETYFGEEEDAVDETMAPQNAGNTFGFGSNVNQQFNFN
Assay: pull-down; GST fusion on glutathione-Sepharose incubated with purified Kap60 and/or Kap95 (thrombin-released), no Gsp1; 1 h at 4°C in PBS; blot with anti-Kap60 or anti-Kap95
Conditions: both partners purified

B1: GST-Mig2 fusion protein (natural protein)
chain: not shown
notes: Mig2 of Saccharomyces cerevisiae, PCR fragment cloned in the SalI site of pGEX-4T-1; also called Mig2-GST; pGEX/MIG2; source: E. coli BL21(DE3) pLysS, purified on glutathione-Sepharose
  binding result: binds

B2: GST-Mig2nls1 fusion protein (natural protein)
chain: not shown
notes: Held on glutathione-Sepharose beads in the pull-downs; also called Mig2nls1-GST; MIG2K32AK33AR37A; source: E. coli BL21(DE3) pLysS, purified on glutathione-Sepharose
  binding result: binds
